# Experimental data: patent publication US20070135998A1
# pKd: −log10 of the molar value.
# Target: VLA1 I-domain protein (human) (UniProt P56199)
# Experiment: KinExA, solution phase affinity, scFv
# Chain of UniProt P56199 (P56199 173-364 limits assumed): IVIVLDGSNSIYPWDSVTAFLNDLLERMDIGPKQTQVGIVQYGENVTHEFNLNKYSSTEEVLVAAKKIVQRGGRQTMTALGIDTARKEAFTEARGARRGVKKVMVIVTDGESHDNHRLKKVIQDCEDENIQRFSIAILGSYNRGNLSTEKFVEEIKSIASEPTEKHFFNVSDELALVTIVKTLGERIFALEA
row,Substance,pKd
1,"AQC2 single chain Fv mutant, heavy chain L60D (scFv)",7.68
2,"AQC2 single chain Fv mutant, heavy chain K64Q (scFv)",7.92
3,"AQC2 single chain Fv mutant, heavy chain K64D (scFv)",8.20
4,"AQC2 single chain Fv mutant, heavy chain S35N (scFv)",7.41
5,"AQC2 single chain Fv mutant, heavy chain Y32F (scFv)",7.47
6,"AQC2 single chain Fv mutant, light chain H31R (scFv)",7.51
7,"AQC2 single chain Fv mutant, heavy chain S35Q (scFv)",7.43
8,"AQC2 single chain Fv mutant, heavy chain R31Q (scFv)",8.09
9,"AQC2 single chain Fv mutant, heavy chain K64N (scFv)",8.39
10,"AQC2 single chain Fv mutant, heavy chain K64E (scFv)",7.42
11,AQC2 single chain Fv (original) (scFv),7.60
12,"AQC2 single chain Fv mutant, light chain N52K (scFv)",7.31
13,"AQC2 single chain Fv mutant, heavy chain T50V (scFv)",7.85
14,"AQC2 single chain Fv mutant, light chain N52H (scFv)",7.37
15,"AQC2 single chain Fv mutant, light chain N52R (scFv)",7.77
16,"AQC2 single chain Fv mutant, light chain N30V (scFv)",8.05
17,"AQC2 single chain Fv mutant, heavy chain D106N (scFv)",7.17
